# In patent publication US20210253718A1, “FRIZZLED5 PROTEIN-BINDING AGENTS” (Modmab Therapeutics Corporation, priority 2016, published 2021):
# Experiments:
# Test in all cases: Flow cytometry of anti-FZD5 Fab binding to CHO cells overexpressing Frizzled CRD
# FZD2 CRD = biological target: T1, FZD2 CRD (Homo sapiens, UniProt Q14332)
# T1 construct: D35-P161; GPI anchor signal (C); expressed in transfected cells; host or cells: CHO cells, lentiviral pLenti-puro
# Procedure: (§1) Plasmids: pLCKO lentiviral vector used for knockout (TKO) library construction and expression of individual gRNAs was constructed as described previously (Hart et al., 2015). Briefly, single guide RNA (sgRNA) scaffold was amplified from px330 (Addgene 42230) and cloned into pLKO.TRC005 lentiviral vector (Broad Institute, Cambridge, Mass.) using AgeI/EcoRI restriction sites. BfuAI sites were added at the 5′ end of the sgRNA scaffold for cloning the TKO library or individual gRNA target sequences. Lenti Cas9-2A-BsdR vector used to generate Cas9 stable expression cell lines was constructed as described previously (Hart et al., 2015). Briefly, lentiCRISPR pXPR_001 (Addgene 49535) was modified through removal of the sgRNA scaffold region through NdeI/EcoRI digest and blunt ends generation using Large Klenow Fragment (NEB). 2A-puro was replaced with 2A-BsdR by PCR using the NheI/MluI sites. Each of the 10 human Frizzled cysteine rich domains (CRDs) were cloned into the lentiviral expression plasmid pLenti-puro in the following cassette: FZD_CRD-MYC-GPI.
# (§2) Flow cytometry: Primary staining of cells was performed by treatment with 200 nM Frizzled profiler Fab. Alexa Fluor 488 AffiniPure F(ab′)2 was used as the secondary antibody (Jackson ImmunoResearch #109-546-097). c-Myc (9E10) IgG1 (primary antibody, Santa Cruz, lot #D0306) and Alexa Fluor 488 IgG (secondary antibody, Life technologies, lot #1458649) were used as controls. Dead cells were excluded by staining with Fixable Viability Dye eFluor 660 (eBioscience, catalogue number 65-0864). All reagents were used as per manufacturer's instructions. Flow cytometry was performed on a BD FACSCanto II flow cytometer (BD Biosciences), and data were analyzed with FlowJo software (FlowJo, LLC).
# (§3) To confirm that the FZD5-WNT7B circuit is not driven simply by expression and rule out the possibility of a disconnect between RNA and protein levels for the Wnt receptors in HPAF-II cells, a panel of recombinant Fabs were generated, alternatively referred to herein as ‘Frizzled profiler’, that can detect and discriminate all but one of the ten Frizzled receptors. […] To characterize the binding specificity of these Fabs on cells, a panel of 10 CHO cell lines was generated, each expressing the CRD domain of a different myc-tagged Frizzled family member anchored at the plasma membrane through a GPI anchor (CHO-myc-FZDGPI). Despite the high sequence identity between Frizzled family members (FIG. 7A, FIG. 7B), selective Fabs were identified for FZD4, FZD5, FZD6 and FZD10 as assessed by immunofluorescence and flow cytometry (FIG. 7D and FIG. 8). […] The FZD8 CRD is most homologous to that of FZD5 (FIG. 7B). These Fabs can be used to discriminate expression of FZD1, FZD2, FZD4, FZD5, FZD6, FZD7, FZD8, FZD9 and FZD10 (FIG. 7D and FIG. 8). The ‘Frizzled profiler’ therefore consists of 10 different Fabs that can be used to discriminate expression of 9 different Frizzled family members. The Frizzled profiler was then used to confirm that HPAF-II cells express FZD1, FZD5, FZD6 and possibly FZD8 (FIG. 7E).
# (§4) The binding of anti-FZD5 Fabs to cell surface-expressed Frizzled protein was further determined for each member of the Frizzled family via flow cytometry and immunofluorescence analysis of a panel of 10 CHO cell lines, each ectopically over-expressing the extracellular cysteine-rich domain (CRD) of a different Frizzled protein family member.
# FZD3 CRD = biological target: T2, FZD3 CRD (Homo sapiens, UniProt Q9NPG1)
# T2 construct: CRD of FZD1, FZD2, FZD3, FZD4, FZD5, FZD6, FZD7, FZD8, FZD9 or FZD10; GPI anchor signal (C); expressed in transfected cells; host or cells: CHO cells, lentiviral pLenti-puro
# T2 sequence (Q9NPG1 23-136 limits assumed): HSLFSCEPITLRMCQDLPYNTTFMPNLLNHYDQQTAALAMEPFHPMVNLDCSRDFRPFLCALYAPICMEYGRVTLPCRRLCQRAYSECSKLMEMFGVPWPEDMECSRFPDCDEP
# Procedure: as §1, §2, §3, §4
# FZD5 CRD = biological target: T3, FZD5 CRD (Homo sapiens, UniProt Q13467)
# T3 construct: K29-T156; GPI anchor signal (C); expressed in transfected cells; host or cells: CHO cells, lentiviral pLenti-puro
# T3 sequence (Q13467 29-156): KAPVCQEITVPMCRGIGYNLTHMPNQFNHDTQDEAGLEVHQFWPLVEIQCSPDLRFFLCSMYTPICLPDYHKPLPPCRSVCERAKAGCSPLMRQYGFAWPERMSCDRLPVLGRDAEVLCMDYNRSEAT
# Procedure: as §1, §2, §3, §4
# FZD6 CRD = biological target: T4, FZD6 CRD (Homo sapiens, UniProt O60353)
# T4 construct: S20-P146; GPI anchor signal (C); expressed in transfected cells; host or cells: CHO cells, lentiviral pLenti-puro
# T4 sequence (O60353 20-146): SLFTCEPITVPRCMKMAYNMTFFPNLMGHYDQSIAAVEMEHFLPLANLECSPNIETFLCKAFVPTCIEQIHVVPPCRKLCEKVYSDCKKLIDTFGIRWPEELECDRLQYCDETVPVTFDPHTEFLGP
# Procedure: as §1, §2, §3, §4
# FZD7 CRD = biological target: T5, FZD7 CRD (Homo sapiens, UniProt O75084)
# T5 construct: D45-S169; GPI anchor signal (C); expressed in transfected cells; host or cells: CHO cells, lentiviral pLenti-puro
# Procedure: as §1, §2, §3, §4
# FZD8 CRD = biological target: T6, FZD8 CRD (Homo sapiens, UniProt Q9H461)
# T6 construct: K31-D155; GPI anchor signal (C); expressed in transfected cells; host or cells: CHO cells, lentiviral pLenti-puro
# T6 sequence (Q9H461 31-155): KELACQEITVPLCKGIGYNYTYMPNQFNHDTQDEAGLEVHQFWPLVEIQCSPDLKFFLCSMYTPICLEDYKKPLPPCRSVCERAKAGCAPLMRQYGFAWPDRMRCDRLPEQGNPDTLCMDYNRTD
# Procedure: as §1, §2, §3, §4
# FZD9 CRD = biological target: T7, FZD9 CRD (Homo sapiens, UniProt O00144)
# T7 construct: G35-A161; GPI anchor signal (C); expressed in transfected cells; host or cells: CHO cells, lentiviral pLenti-puro
# T7 sequence (O00144 35-161): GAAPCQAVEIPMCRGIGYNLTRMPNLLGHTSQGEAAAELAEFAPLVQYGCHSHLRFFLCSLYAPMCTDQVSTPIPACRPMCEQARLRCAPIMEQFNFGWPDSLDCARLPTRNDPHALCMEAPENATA
# Procedure: as §1, §2, §3, §4
substance,measurement,setting,value
"Fab-2931: anti-FZD5 Fab with antibody variable region Fv-2931; CDR SEQ ID NOs: 35, 36, 70, 102, 146, 176 (CDR 1 QSVSSA; CDR 2 SAS; CDR 3 QQSSYSLIT; CDR 4 GFNLSYSS; CDR 5 ISPYSGST; CDR 6 ARGSYWYVGGGWWVSGHGGMDY)","Median fluorescence, Frizzled CRD overexpressed on CHO cells: FZD2",FZD2 CRD,4.7
same,"Median fluorescence, Frizzled CRD overexpressed on CHO cells: FZD3",FZD3 CRD,3.49
same,"Median fluorescence, Frizzled CRD overexpressed on CHO cells: FZD5",FZD5 CRD,28.13
same,"Median fluorescence, Frizzled CRD overexpressed on CHO cells: FZD6",FZD6 CRD,2.89
same,"Median fluorescence, Frizzled CRD overexpressed on CHO cells: FZD7",FZD7 CRD,9.14
same,"Median fluorescence, Frizzled CRD overexpressed on CHO cells: FZD8",FZD8 CRD,7.43
same,"Median fluorescence, Frizzled CRD overexpressed on CHO cells: FZD9",FZD9 CRD,2.76
